Data taken from patent US20220119490A1 (Genentech, published 2022).
Blank lines part the entries; values can stand above or below the binder they belong to.

B4: LILRB1 extracellular domain (receptor, human, UniProt Q8NHL6 24-461, looked up)
chain: GHLPKPTLWAEPGSVITQGSPVTLRCQGGQETQEYRLYREKKTALWITRIPQELVKKGQFPIPSITWEHAGRYRCYYGSDTAGRSESSDPLELVVTGAYIKPTLSAQPSPVVNSGGNVILQCDSQVAFDGFSLCKEGEDEHPQCLNSQPHARGSSRAIFSVGPVSPSRRWWYRCYAYDSNSPYEWSLPSDLLELLVLGVSKKPSLSVQPGPIVAPEETLTLQCGSDAGYNRFVLYKDGERDFLQLAGAQPQAGLSQANFTLGPVSRSYGGQYRCYGAHNLSSEWSAPSDPLDILIAGQFYDRVSLSVQPGPTVASGENVTLLCQSQGWMQTFLLTKEGAADDPWRLRSTYQSQKYQAEFPMGPVTSAHAGTYRCYGSQSSKPYLLTHPSDPLELVVSGPSGGPSSPTTGPTSTSGPEDQPLTPTGSDPQSGLGRHLGV
notes: extracellular domain; also called leukocyte immunoglobulin-like receptor subfamily B member 1

How the values were obtained:
[1] = target: T1, LILRB4 expressed on cells (human, UniProt Q8NHJ6 22-448); test: cell surface interaction assay: ECD tetramer on transfected cells (FIG. 5N)
T1 construct: whole, on cells; C-terminally tagged in the co-IP; also called LILRB4-FLAG

[2] = target: T2, LDLR expressed on cells (human, UniProt P01130 22-860); test: cell surface interaction assay: soluble multimerized LILRB on transfected cells
T2 construct: whole, on cells

[3] = target: T3, EPHA5 (human, UniProt P54756); test: SPR, LILRA3 ECD-Fc immobilized, ECD-Fc analytes at 250 nM
T3 construct: extracellular domain; analyte at 250 nM on immobilized LILRA3
Excerpt: (§1) An irrelevant Fc-tagged protein was used as a control. Sensorgram shown is representative of at least 3 independent runs.

[4] = target: T4, EPHA3 extracellular domain (human, UniProt P29320 21-541); test: as above
T4 construct: extracellular domain; ECD construct; also called ephrin type-A receptor 3
T4 sequence (looked up): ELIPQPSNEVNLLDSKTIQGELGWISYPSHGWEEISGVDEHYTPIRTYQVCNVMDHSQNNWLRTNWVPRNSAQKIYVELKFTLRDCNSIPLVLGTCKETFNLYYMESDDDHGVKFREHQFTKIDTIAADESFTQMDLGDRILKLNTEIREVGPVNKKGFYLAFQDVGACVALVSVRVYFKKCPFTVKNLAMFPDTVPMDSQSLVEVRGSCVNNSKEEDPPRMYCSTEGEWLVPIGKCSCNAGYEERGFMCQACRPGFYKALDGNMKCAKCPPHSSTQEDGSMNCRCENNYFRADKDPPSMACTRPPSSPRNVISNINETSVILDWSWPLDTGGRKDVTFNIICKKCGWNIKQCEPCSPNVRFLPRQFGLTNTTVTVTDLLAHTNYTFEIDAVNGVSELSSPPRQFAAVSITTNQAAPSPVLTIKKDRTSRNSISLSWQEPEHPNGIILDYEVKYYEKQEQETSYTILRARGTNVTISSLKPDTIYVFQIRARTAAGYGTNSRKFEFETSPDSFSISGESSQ
Excerpt: as §1

[5] = target: T5, FLT4 expressed on cells (human, UniProt P35916 25-1363); test: cell surface interaction assay: soluble multimerized LILRB on transfected cells
T5 construct: whole, on cells; also called VEGFR3; vascular endothelial growth factor receptor 3

[6] = target: T6, IL6R expressed on cells (human, UniProt P08887 20-468); test: as above
T6 construct: whole, on cells; C-terminally tagged in the co-IP; also called IL6R-HA
T6 sequence (looked up): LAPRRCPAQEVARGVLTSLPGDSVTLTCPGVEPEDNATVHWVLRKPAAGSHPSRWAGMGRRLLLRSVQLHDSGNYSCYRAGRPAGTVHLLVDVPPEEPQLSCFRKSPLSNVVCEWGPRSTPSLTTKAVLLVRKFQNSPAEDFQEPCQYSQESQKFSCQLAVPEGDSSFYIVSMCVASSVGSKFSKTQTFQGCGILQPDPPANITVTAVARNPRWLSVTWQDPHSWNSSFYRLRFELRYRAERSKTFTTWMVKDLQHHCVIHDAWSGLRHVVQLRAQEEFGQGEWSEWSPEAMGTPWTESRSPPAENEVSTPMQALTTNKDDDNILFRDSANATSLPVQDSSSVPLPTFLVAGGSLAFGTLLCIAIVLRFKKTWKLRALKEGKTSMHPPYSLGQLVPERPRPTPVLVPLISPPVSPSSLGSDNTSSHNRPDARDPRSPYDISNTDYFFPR

[7] = target: T7, LDLR extracellular domain (human, UniProt P01130 22-788); test: cell surface interaction assay: ECD tetramer on transfected cells (FIG. 5N)
T7 construct: extracellular domain; Soluble query, streptavidin tetramer; also called low-density lipoprotein receptor

[8] = target: B4; test: cell surface interaction assay: soluble multimerized LILRB on transfected cells
[9] = target: T8, CLEC-2 extracellular domain (human, UniProt Q9P126 55-229); test: SPR, Langmuir model; CLEC-2 ECD immobilized, monomeric Avi-tagged PDPN ectodomain as analyte
T8 construct: extracellular domain; Recombinant ECD in SPR and CAF assays; streptavidin tetramer in organoid cultures; also called CLEC1B; rCLEC-2
Experimental: (§2) SPR was measured using a Proteon XPR36 Instrument (Biorad) or a Biacore 3000 (GE Healthcare). […] Bulk refractive index changes were removed by substrating a reference flow response. For KD calculations, 300-400 resonance units were immobilized, and kinetic data were fit to equilibrium or a Langmuir model to calculate kinetic parameters for CD177 and CLEC-2 binding, respectively. […] All sensorgrams were analyzed with BiaEvaluation 4.1 (Biacore) or Proteon Manager 3.1.0.6 (Proteon) software.

[10] = target: T9, CD177 extracellular domain (human, UniProt Q8N6Q3 22-408, limits assumed); test: SPR, fit to equilibrium; CD177 ECD immobilized, monomeric Avi-tagged PDPN ectodomain as analyte
T9 construct: extracellular domain; ECD-gD-GPI on COS-7 cells in the screen; recombinant ECD in SPR and CAF assays; streptavidin tetramer in organoid cultures; also called NB1; PRV1
T9 sequence (looked up): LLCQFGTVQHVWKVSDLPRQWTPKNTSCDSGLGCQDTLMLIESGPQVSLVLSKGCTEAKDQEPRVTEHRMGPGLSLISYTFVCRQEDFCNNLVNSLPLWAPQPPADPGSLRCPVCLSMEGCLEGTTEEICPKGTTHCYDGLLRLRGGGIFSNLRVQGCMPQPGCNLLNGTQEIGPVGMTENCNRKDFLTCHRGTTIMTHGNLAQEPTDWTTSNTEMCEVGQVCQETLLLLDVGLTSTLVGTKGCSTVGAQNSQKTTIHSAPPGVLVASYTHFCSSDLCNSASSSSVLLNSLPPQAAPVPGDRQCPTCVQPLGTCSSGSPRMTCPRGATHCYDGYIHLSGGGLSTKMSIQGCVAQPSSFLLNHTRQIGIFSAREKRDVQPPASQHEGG
Experimental: as §2

T7 sequence (P01130 22-788): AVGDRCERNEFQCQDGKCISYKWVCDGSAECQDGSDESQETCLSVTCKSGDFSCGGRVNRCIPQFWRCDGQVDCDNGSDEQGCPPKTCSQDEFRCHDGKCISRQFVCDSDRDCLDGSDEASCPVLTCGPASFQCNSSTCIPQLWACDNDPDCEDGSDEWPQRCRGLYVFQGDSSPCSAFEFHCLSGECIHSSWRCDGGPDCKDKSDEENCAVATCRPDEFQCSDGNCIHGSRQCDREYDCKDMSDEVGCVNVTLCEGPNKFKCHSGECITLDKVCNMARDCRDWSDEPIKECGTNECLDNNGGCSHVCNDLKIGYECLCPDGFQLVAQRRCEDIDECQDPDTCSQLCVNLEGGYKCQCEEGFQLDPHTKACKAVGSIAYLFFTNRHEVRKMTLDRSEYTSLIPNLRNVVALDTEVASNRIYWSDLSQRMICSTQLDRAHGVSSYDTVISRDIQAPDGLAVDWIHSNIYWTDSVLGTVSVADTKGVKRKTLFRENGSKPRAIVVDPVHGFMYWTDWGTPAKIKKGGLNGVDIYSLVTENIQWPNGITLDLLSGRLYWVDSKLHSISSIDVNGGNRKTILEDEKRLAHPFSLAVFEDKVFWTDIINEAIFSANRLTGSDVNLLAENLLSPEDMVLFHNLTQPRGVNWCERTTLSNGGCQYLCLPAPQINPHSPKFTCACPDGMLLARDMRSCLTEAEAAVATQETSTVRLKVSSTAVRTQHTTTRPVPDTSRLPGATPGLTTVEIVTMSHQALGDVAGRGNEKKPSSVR
T8 sequence (Q9P126 55-229): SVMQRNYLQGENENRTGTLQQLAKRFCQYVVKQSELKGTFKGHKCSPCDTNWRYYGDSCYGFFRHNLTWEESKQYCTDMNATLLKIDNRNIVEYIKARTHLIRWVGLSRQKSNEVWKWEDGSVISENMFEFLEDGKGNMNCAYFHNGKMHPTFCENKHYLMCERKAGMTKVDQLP
T3 sequence (P54756 25-573): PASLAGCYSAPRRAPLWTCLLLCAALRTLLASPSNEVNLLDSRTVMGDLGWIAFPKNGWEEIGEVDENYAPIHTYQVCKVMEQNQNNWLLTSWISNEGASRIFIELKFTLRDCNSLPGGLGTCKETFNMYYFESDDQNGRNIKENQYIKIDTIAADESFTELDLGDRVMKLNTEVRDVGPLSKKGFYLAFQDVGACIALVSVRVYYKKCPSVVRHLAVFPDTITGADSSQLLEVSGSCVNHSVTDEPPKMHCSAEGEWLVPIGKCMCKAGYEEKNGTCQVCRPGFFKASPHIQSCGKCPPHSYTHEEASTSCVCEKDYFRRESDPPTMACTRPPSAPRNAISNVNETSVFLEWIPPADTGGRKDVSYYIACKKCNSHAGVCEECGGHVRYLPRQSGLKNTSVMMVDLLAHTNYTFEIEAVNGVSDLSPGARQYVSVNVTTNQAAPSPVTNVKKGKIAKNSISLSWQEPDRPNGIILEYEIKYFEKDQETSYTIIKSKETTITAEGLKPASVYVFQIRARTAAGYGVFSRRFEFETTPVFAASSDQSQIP
T5 sequence (P35916 25-1363): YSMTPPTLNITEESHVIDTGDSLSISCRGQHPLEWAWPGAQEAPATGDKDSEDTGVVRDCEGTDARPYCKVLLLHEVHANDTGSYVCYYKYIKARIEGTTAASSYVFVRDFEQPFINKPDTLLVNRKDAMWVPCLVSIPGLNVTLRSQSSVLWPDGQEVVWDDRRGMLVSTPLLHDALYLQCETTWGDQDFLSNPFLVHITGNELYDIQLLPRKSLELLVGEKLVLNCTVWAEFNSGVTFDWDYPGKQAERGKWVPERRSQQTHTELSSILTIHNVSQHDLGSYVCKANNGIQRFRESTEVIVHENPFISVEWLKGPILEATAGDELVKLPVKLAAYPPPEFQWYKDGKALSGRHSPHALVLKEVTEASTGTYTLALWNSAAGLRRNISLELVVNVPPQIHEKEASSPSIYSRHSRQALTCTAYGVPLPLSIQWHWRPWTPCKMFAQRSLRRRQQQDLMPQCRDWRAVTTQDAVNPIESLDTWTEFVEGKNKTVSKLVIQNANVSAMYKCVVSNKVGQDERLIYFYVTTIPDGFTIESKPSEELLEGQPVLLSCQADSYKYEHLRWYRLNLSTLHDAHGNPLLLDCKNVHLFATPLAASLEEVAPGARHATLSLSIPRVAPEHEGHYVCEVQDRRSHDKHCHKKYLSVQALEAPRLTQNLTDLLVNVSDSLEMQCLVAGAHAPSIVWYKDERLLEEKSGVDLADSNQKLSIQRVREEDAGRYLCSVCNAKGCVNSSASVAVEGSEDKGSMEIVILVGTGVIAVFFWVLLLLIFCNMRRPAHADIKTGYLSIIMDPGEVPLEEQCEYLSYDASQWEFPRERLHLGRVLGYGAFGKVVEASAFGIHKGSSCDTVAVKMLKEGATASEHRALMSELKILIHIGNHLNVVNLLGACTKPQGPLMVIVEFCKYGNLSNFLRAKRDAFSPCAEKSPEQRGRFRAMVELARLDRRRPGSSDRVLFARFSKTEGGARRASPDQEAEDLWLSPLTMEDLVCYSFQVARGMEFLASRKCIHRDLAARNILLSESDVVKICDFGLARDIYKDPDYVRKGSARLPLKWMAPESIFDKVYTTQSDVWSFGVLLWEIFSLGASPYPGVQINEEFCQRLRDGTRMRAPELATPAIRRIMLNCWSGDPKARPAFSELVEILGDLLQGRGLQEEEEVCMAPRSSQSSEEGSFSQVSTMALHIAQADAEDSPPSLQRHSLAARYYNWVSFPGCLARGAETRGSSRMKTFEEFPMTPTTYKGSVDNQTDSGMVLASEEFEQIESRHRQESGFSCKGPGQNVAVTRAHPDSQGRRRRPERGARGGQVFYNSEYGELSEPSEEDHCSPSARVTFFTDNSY
T2 sequence (P01130 22-860): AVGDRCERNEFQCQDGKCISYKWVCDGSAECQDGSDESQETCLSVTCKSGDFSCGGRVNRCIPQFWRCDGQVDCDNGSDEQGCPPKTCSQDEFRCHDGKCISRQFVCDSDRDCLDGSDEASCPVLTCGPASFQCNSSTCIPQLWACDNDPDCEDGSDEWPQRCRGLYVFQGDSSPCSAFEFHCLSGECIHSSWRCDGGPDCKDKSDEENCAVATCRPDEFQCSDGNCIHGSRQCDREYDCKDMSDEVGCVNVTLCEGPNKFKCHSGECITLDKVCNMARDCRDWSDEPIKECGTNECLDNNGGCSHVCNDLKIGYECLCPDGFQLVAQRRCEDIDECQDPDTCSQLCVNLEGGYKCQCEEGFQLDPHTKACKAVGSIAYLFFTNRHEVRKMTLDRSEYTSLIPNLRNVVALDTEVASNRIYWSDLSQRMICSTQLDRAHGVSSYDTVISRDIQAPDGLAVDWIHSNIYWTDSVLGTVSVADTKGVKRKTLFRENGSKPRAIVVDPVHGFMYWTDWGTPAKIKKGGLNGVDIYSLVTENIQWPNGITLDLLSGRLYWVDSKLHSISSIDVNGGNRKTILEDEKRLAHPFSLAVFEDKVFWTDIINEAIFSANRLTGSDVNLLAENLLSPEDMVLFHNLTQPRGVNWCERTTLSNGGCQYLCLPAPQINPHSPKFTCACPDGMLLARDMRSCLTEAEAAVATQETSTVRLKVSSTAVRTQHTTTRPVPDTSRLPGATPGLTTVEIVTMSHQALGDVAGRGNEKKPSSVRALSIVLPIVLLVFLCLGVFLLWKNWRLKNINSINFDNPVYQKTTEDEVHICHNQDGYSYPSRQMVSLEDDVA

- binding result [1]: binds
B1: CNTFR extracellular domain (receptor, human, UniProt P26992 23-342, looked up)
chain: QRHSPQEAPHVQYERLGSDVTLPCGTANWDAAVTWRVNGTDLAPDLLNGSQLVLHGLELGHSGLYACFHRDSWHLRHQVLLHVGLPPREPVLSCRSNTYPKGFYCSWHLPTPTYIPNTFNVTVLHGSKIMVCEKDPALKNRCHIRYMHLFSTIKYKVSISVSNALGHNATAITFDEFTIVKPDPPENVVARPVPSNPRRLEVTWQTPSTWPDPESFPLKFFLRYRPLILDQWQHVELSDGTAHTITDAYAGKEYIIQVAAKDNEIGTWSDWSVAAHATPWTEEPRHLTTEAQAAETTTSTTSSLAPPPTTKICDPGELGS
notes: extracellular domain; Soluble query, streptavidin tetramer

- binding result [2]: binds
B2: LILRB5 extracellular domain (receptor, human, UniProt O75023 24-458, looked up)
chain: GTLPKPTLWAEPASVIARGKPVTLWCQGPLETEEYRLDKEGLPWARKRQNPLEPGAKAKFHIPSTVYDSAGRYRCYYETPAGWSEPSDPLELVATGFYAEPTLLALPSPVVASGGNVTLQCDTLDGLLTFVLVEEEQKLPRTLYSQKLPKGPSQALFPVGPVTPSCRWRFRCYYYYRKNPQVWSNPSDLLEILVPGVSRKPSLLIPQGSVVARGGSLTLQCRSDVGYDIFVLYKEGEHDLVQGSGQQPQAGLSQANFTLGPVSRSHGGQYRCYGAHNLSPRWSAPSDPLDILIAGLIPDIPALSVQPGPKVASGENVTLLCQSWHQIDTFFLTKEGAAHPPLCLKSKYQSYRHQAEFSMSPVTSAQGGTYRCYSAIRSYPYLLSSPSYPQELVVSGPSGDPSLSPTGSTPTPGPEDQPLTPTGLDPQSGLGRHLG
notes: extracellular domain

- binding result [3]: no binding (tested: 250 nM)
- binding result [4]: binds
B3: LILRA3 (ECD-Fc fusion protein) (Fc fusion, human, UniProt Q8N6C8 24-439, looked up)
chain: GPLPKPTLWAEPGSVITQGSPVTLRCQGSLETQEYHLYREKKTALWITRIPQELVKKGQFPILSITWEHAGRYCCIYGSHTAGLSESSDPLELVVTGAYSKPTLSALPSPVVTSGGNVTIQCDSQVAFDGFILCKEGEDEHPQCLNSHSHARGSSRAIFSVGPVSPSRRWSYRCYGYDSRAPYVWSLPSDLLGLLVPGVSKKPSLSVQPGPVVAPGEKLTFQCGSDAGYDRFVLYKEWGRDFLQRPGRQPQAGLSQANFTLGPVSRSYGGQYTCSGAYNLSSEWSAPSDPLDILITGQIRARPFLSVRPGPTVASGENVTLLCQSQGGMHTFLLTKEGAADSPLRLKSKRQSHKYQAEFPMSPVTSAHAGTYRCYGSLSSNPYLLTHPSDPLELVVSGAAETLSPPQNKSDSKAGE
notes: extracellular domain; Immobilized on the SPR chip

Binder: B4
- binding result [5]: binds
- binding result [6]: binds

- binding result [7]: binds
B5: LILRB5 expressed on cells (receptor, human, UniProt O75023 24-590, looked up)
chain: GTLPKPTLWAEPASVIARGKPVTLWCQGPLETEEYRLDKEGLPWARKRQNPLEPGAKAKFHIPSTVYDSAGRYRCYYETPAGWSEPSDPLELVATGFYAEPTLLALPSPVVASGGNVTLQCDTLDGLLTFVLVEEEQKLPRTLYSQKLPKGPSQALFPVGPVTPSCRWRFRCYYYYRKNPQVWSNPSDLLEILVPGVSRKPSLLIPQGSVVARGGSLTLQCRSDVGYDIFVLYKEGEHDLVQGSGQQPQAGLSQANFTLGPVSRSHGGQYRCYGAHNLSPRWSAPSDPLDILIAGLIPDIPALSVQPGPKVASGENVTLLCQSWHQIDTFFLTKEGAAHPPLCLKSKYQSYRHQAEFSMSPVTSAQGGTYRCYSAIRSYPYLLSSPSYPQELVVSGPSGDPSLSPTGSTPTPGPEDQPLTPTGLDPQSGLGRHLGVVTGVSVAFVLLLFLLLFLLLRHRHQSKHRTSAHFYRPAGAAGPEPKDQGLQKRASPVADIQEEILNAAVKDTQPKDGVEMDAPAAASEAPQDVTYAQLHSLTLRREATEPPPSQEREPPAEPSIYAPLAIH
notes: whole, on cells

- binding result [8]: binds
B6: EDAR expressed on cells (receptor, human, UniProt Q9UNE0 27-448, looked up)
chain: EYSNCGENEYYNQTTGLCQECPPCGPGEEPYLSCGYGTKDEDYGCVPCPAEKFSKGGYQICRRHKDCEGFFRATVLTPGDMENDAECGPCLPGYYMLENRPRNIYGMVCYSCLLAPPNTKECVGATSGASANFPGTSGSSTLSPFQHAHKELSGQGHLATALIIAMSTIFIMAIAIVLIIMFYILKTKPSAPACCTSHPGKSVEAQVSKDEEKKEAPDNVVMFSEKDEFEKLTATPAKPTKSENDASSENEQLLSRSVDSDEEPAPDKQGSPELCLLSLVHLAREKSATSNKSAGIQSRRKKILDVYANVCGVVEGLSPTELPFDCLEKTSRMLSSTYNSEKAVVKTWRHLAESFGLKRDEIGGMTDGMQLFDRISTAGYSIPELLTKLVQIERLDAVESLCADILEWAGVVPPASQPHAAS
notes: whole, on cells; C-terminally tagged in the co-IP; also called EDAR-HA

- Kd [9]: 210 nM
- Kd [10]: 3300 nM
B7: podoplanin (PDPN) extracellular domain (receptor, human, UniProt Q86YL7 23-131, looked up)
chain: ASTGQPEDDTETTGLEGGVAMPGAEDDVVTPGTSEDRYKSGLTTLVATSVNSVTGIRIEDLPTSESTVHAQEQSPSATASNVATSHSTEKVDGDTQTTVEKDGLSTVTL
modifications: biotinylated Avi tag in the tetramer
notes: extracellular domain; Streptavidin-APC tetramer in the screens; monomeric Avi-tagged ectodomain for KD; also called gp38; Aggrus
